Reference: patent publication US20260242818A1

Target: barnase (Bacillus amyloliquefaciens) (UniProt P00648)
Assay: cell-based or functional assay

Sequence of UniProt P00648 (P00648 48-157 limits assumed): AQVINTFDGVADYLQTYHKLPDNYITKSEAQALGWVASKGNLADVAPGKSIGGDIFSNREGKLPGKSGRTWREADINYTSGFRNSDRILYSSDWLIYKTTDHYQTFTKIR

Substance: barstar (from UniProt P11540 2-90)
- pollen formation in F1 anthers (PI staining, confocal microscopy); TA29b::barnase × TA29b::barstar, barstar under the same promoter as barnase (pollen grains): 0
- pollen viability (FDA/PI assay) in successful rescue F1 flowers, TA29b::barnase × TA29a::barstar: 3.6%
